Consider two molecules from patent publication US20190284293A1 (Bristol-Myers Squibb, published 2019).

Several values for one entry are separate records, joined by “and”; a condition that tells them apart may be missing. Identical values can stand only once.

For experiment [1], the target named is T1, human CD73 on cells (human, UniProt P21589 27-549).
T1 construct: Endogenous protein; also called endogenous CD73 on Calu6, NCI-H292, SK-MEL-24, human B and T cells
T1 sequence: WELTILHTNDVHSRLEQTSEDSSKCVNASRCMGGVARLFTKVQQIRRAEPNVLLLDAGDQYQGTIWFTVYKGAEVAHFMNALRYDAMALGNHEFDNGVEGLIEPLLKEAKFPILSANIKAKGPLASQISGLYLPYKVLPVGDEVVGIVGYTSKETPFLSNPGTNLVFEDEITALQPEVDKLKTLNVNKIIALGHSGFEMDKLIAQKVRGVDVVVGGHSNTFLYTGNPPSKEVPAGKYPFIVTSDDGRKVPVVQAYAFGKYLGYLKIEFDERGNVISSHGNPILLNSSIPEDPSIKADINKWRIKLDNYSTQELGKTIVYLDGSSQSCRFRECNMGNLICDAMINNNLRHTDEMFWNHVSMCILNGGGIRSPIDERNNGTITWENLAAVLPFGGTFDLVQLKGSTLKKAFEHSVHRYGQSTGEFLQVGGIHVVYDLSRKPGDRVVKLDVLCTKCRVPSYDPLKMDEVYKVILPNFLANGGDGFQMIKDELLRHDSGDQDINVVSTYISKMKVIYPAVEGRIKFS
Kind of experiment: binding titration on Calu6 cells, average of 2-6 experiments.

In experiment [2] the target is T1, human CD73 on cells. The experiment in a line: flow cytometry, Calu6 cells. How it is done: Titration binding curves were produced with CD73 antibodies on Calu6 (CD73 endogenous expressors; human pulmonary adenocarcinoma cell line), DMS114 (CD73 negative; human small cell lung cancer cell line), CHO-cynoCD73 (cynoCD73-transfected) and CHO-K1 (cynoCD73 negative), cells using Alexa Fluor® 647 Goat Anti-Human IgG (H+L) as a secondary antibody, Invitrogen Cat#A-21445, using the following method: 100000 cells were plated in 100 uL PBS+2% FBS per well and blocked for 20 min. Using a U-bottom 96-deep well plate, volumes of antibody and PBS+2% FBS were combined as dictated by Table 12 below.
An 8-point serial dilution was performed by diluting a sixth of the volume (90 uL) into […], PBS+2% FBS. The cell plate was spun down for 5 minutes at 1500 rpm. 100 uL of diluted antibody was added per well of the plate. 100 uL PBS+2% FBS were added to all other wells. […] The plates were spun down at 1500 rpm for 5 min and washed in 200 uL PBS+2% FBS per well. The plates were washed again, resuspended in 200 uL 2% FBS in PBS per well and the samples were run.
(In general: A flow cytometer gives signals particle by particle.)

In experiment [3] the target is T2, N-hCD73-his (N-terminal domain of human CD73, residues 26-336, His tag) (human, UniProt P21589 26-336).
T2 sequence: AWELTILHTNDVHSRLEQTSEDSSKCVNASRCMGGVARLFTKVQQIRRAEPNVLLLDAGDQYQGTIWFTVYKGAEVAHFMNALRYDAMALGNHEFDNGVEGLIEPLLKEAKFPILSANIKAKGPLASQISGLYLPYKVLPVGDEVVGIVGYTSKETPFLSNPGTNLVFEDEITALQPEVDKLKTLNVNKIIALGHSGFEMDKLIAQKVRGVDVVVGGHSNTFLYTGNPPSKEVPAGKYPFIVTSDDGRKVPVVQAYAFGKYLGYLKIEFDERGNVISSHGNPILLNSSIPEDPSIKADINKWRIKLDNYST
The experiment in a line: SPR, mAb captured on protein A. In general terms: Surface plasmon resonance follows binding to a sensor surface in real time, without labels.

Experiment [4] deals with T2, N-hCD73-his (N-terminal domain of human …). The experiment in a line: SPR, comparison of all IgG2 molecules. How it is done:
For these experiments, protein A (Pierce) was immobilized to a density of 3000-4000 RU on flow cells 1-4 of a CM5 sensor chip (GE Healthcare) using standard ethyl(dimethylaminopropyl) carbodiimide (EDC)/N-hydroxysuccinimide […] chemistry, with ethanolamine blocking, in a running buffer of 0.01 M HEPES pH 7.4, 0.15 M NaCl, 3 mM EDTA, 0.005% v/v tween 20. […] The running buffer for the kinetic experiments was 10 mM sodium phosphate, 130 mM sodium chloride, 0.05% tween 20, pH 7.1. The surfaces were regenerated after each cycle using two 30 s pulses of 10 mM glycine pH 1.5 at a flow rate of 30 μl/min. Sensogram data was double-referenced and then fitted to a 1:1 Langmuir model using Biacore T100 evaluation software v2.0.4, to determine the association rate constant (ka), the dissociation rate constant (kd), and the equilibrium dissociation constant (KD).

Experiment [5] shares this target. The experiment in a line: SPR.

B1: CD73.10-IgG2-C219S-IgG1.1f (antibody)
heavy: QVQLVESGGGVVQPGRSLRLSCAASGFTFSNYGMHWVRQAPGKGLEWVAVIWYDESNKYYPDSVKGRFTISRDNSKNTLYLQMNSLRAEDTAVYYCARGGSSWYPDSFDIWGQGTMVTVSSASTKGPSVFPLAPCSRSTSESTAALGCLVKDYFPEPVTVSWNSGALTSGVHTFPAVLQSSGLYSLSSVVTVPSSNFGTQTYTCNVDHKPSNTKVDKTVERKSCVECPPCPAPPVAGPSVFLFPPKPKDTLMISRTPEVTCVVVDVSHEDPEVKFNWYVDGVEVHNAKTKPREEQYNSTYRVVSVLTVLHQDWLNGKEYKCKVSNKALPSSIEKTISKAKGQPREPQVYTLPPSREEMTKNQVSLTCLVKGFYPSDIAVEWESNGQPENNYKTTPPVLDSDGSFFLYSKLTVDKSRWQQGNVFSCSVMHEALHNHYTQKSLSLSPG
light: not shown
notes: also called CD73.10-IgG2CS-IgG1.1f; CD73.10-IgG2S-IgG1.1f
B1 displayed a concentration for a half-maximal effect (EC50) in experiment [1] of 0.85 nM. In addition, the EC50 in experiment [2] was determined as 0.85 nM. For the same molecule, in experiment [3], the Kd was 5.7 nM and 6.8 nM; the koff was 0.0016 s⁻¹ and 0.0014 s⁻¹; the kon was 230000 M⁻¹ s⁻¹ and 240000 M⁻¹ s⁻¹.

B2: CD73.10-IgG2-C219S (antibody)
heavy: QVQLVESGGGVVQPGRSLRLSCAASGFTFSNYGMHWVRQAPGKGLEWVAVIWYDESNKYYPDSVKGRFTISRDNSKNTLYLQMNSLRAEDTAVYYCARGGSSWYPDSFDIWGQGTMVTVSSASTKGPSVFPLAPCSRSTSESTAALGCLVKDYFPEPVTVSWNSGALTSGVHTFPAVLQSSGLYSLSSVVTVPSSNFGTQTYTCNVDHKPSNTKVDKTVERKSCVECPPCPAPPVAGPSVFLFPPKPKDTLMISRTPEVTCVVVDVSHEDPEVQFNWYVDGVEVHNAKTKPREEQFNSTFRVVSVLTVVHQDWLNGKEYKCKVSNKGLPAPIEKTISKTKGQPREPQVYTLPPSREEMTKNQVSLTCLVKGFYPSDIAVEWESNGQPENNYKTTPPMLDSDGSFFLYSKLTVDKSRWQQGNVFSCSVMHEALHNHYTQKSLSLSPG
light: not shown
notes: also called CD73.10-IgG2CS; CD73.10-IgG2S
B2: the “fold lower affinity than 11F11 or CD73.4” value in experiment [4] was roughly 10 fold. Besides, the EC50 in experiment [1] is 0.85 nM. This molecule also had an EC50 in experiment [2] of 0.85 nM. Moreover, in experiment [3], the Kd is 6.2 nM and 8.3 nM; the koff was 0.0014 s⁻¹ and 0.0018 s⁻¹; the kon was determined as 220000 M⁻¹ s⁻¹. This molecule gave a Kd in experiment [5] of roughly 5 nM.

In general, EC50 refers to the concentration needed to bring the measured effect to its halfway point. The low end stands for a more potent agent, the high end for a less potent agent. Broadly, the Kd is a measure of binding affinity in units of concentration. A low value points to higher affinity. By koff is commonly meant the rate constant with which the complex falls apart. The low end stands for slow dissociation, the high end for fast dissociation. Broadly, the kon is the second-order rate constant of association. A higher kon goes with faster complex formation.
